Data taken from patent US20200199225A1.

Molecular target: BCRs exhibiting the target structure on primary B-cells from the blood of leukemia patients
Assay: cell-based or functional assay

lymphocyte count in the flow-through after double purification over LS columns with antibody-conjugated MACS MicroBeads (start: 80,000 lymphocytes/µl) (lymphocytes/µl): < 5000
B1: AVA-mAb01 (antibody, V domains shown)
VH: QVQLQQSGPGLVQPSQSLSITCTVSGFSLTSYGIHWVRQSPGKGLEWLGVIWRGGGTDSNAAFMSRLSITKDNSKSQVFFKMNSLQADDTAIYYCARSRYDEEESMNYWGQGTSVTVSS
VL: QIVLTQSPASLSASVGETVTITCRASGNIHSYLAWYQQKQGKSPQLLVYNAKTLADGVPSRFSGSGSGTQYSLKINSLQPEDFGSYYCQHFWNTPPTFGAGTKLELK
